Test results as given in the nanobody polyreactivity screen of Harvey et al. (2022).

Experiment: yeast display, Sf9 membrane polyspecificity reagent, FACS + sequencing; frameworks hold sequencing errors
In short: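 Genes from sorted yeast were amplified by colony PCR, read by MiSeq 2 × 250 sequencing and filtered on CDR length. These cells carried a synthetic nanobody library in Saccharomyces cerevisiae BJ5465 and were sorted by FACS into low and high (top ~1%) gates on anti-HA and streptavidin fluorescence. Polyreactivity is labelled according to the gate of origin.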

Sequence	polyreactivity (PSR sort gate)
QVQLVESGGGLVQAGGSLRLSCAASGFIIRGNVMGWYRQAPGKERELVAAISGRGGSTYYADSVKGRFTISRDNAKNTVYLQMNSLKPEDTAVYYCNAAGLYNSRLDYWGQGTQVTVSS	high polyreactivity
QVQLVESGGGLVQAGGSLRLSCAASGFIIRRYAMGRYRQAPGKEREMVASIDRSGASTYYADSVKGRLTISRDNAKYTVYLQMNSLKPEDTAVYYCNKAFAWTGWYSVQGDYWGQGTQVTVSS	high polyreactivity
QVQLVESGGGLVQAGGSLRLSCAASGFIIVYYAMGWYRQAPGKERELVAGISSGGSTYYADSVKGRFTISRDNAKNTVYLQMNSLKPEDTAVYYCATRYLYRGYSYFAYDYWGQGTQVTVSS	low polyreactivity
QVQLVESGGGLVQAGGSLRLSCAASGFILAQNAKGWSRQAPGKEWELVAAISRRGGRTSYADSVKGRFTISRDNAKNTVYLQMNSLKPEDTAVYYCAALPPRASSDAGGWYVAEDYWGQGTQVTVSS	high polyreactivity
QVQLVESGGGLVQAGGSLRLSCAASGFILATNAMGWSRQAPGKERELVAAISYAGGSTNYADSVKGRFTISRDNAKNTVYVPMNSLKPEDTAVYYCNAGGTVIWAWYCPVYSWGHGTQVTVSS	low polyreactivity
QVQLVESGGGLVQAGGSLRLSCAASGFILDTYGMGWYRQAPGKERELVAAISQSDVSTYYADSVKGRFTISRDNAKNTVYLQMNSLKPEDTAVYYCAADRGGLRWFWQVLYDYWGQGTQVTVSS	low polyreactivity
QVQLVESGGGLVQAGGSLRLSCAASGFILGYNAMGLYRQAPGKERELVAAINGGSGSTYYADSVKGRFTISRDNAKNTVYLQMNSLKPEDTAVYYCAAEVTWAFFYERDYWGQGTQVTVSS	high polyreactivity
QVQLVESGGGLVQAGGSLRLSCAASGFILGYNAMGWYRQEPGKERELVADITFSGGGTNYADSVKGRFTISRDNAKNTVYLQMNSLKPEDTAVYYCNAAAFSQLRVRYDYWGQGTQVTVSS	low polyreactivity
QVQLVESGGGLVQAGGSLRLSCAASGFILKFYAMGWYRQAPGKERELVAAISRRGGSTYYADSVKGRFTISRDNAKNTVYLQMNSLKPEDTAVYHCAKDGTTSRVSDSSDYWGQGTQVTVSS	high polyreactivity
QVQLVESGGGLVQAGGSLRLSCAASGFILKYYAMGWYRQAPGKERELVAAISVRGGSTYYADSVKGRFTISRDNAKNTVYLQMNSLKPEDTAVYYCAARHRYGGAFVDYDYWGQGTQVTVSS	high polyreactivity
QVQLVESGGGLVQAGGSLRLSCAASGFILLDNAMGWYRQAPGKEREFVASINISGDRTFYADSVKGRFTISRDNAKNTDYLQMNSLKPEDTAVYYCNALPSEPMVYWGQGTQVTVSS	low polyreactivity
QVQLVESGGGLVQAGGSLRLSCAASGFILLDNGMGWYREAPGKERELVAAITYSGDTTYYADSVKGRFTISRDNAKNTVYLQMNSLKPEDTAVYYCNADNDKWTTGHDYWGQGTQVTVSS	low polyreactivity
QVQLVESGGGLVQAGGSLRLSCAASGFILLQYVMGWYRQAPGKERELVAAITSGGSTYYADSVKGRFTISRDNAKYTVYLQMNSLKPEDTAVYYCSTDVADNTFYALYGYDYWGQGTQVTVSS	low polyreactivity
QVQLVESGGGLVQAGGSLRLSCAASGFILLYYAMGWYRQAPGKERELVAANSWTGGRTYYADSVKGRFTISRDNAKNTVYLQMTSLKPEDSAVYYCNTDKFFGRKYGYWGQGTQVTVSS	low polyreactivity
QVQLVESGGGLVQAGGSLRLSCAASGFILNKNVMGWYRQAPGKERELVAAITGSGGRTYYADSVKGRFSISRDNAKNTVYLQMNSLKPEDTAVYYCAARRPLVRYIMGYWGQGTQVTVSS	high polyreactivity
QVQLVESGGGLVQAGGSLRLSCAASGFILPWYVMGWYRQAPGKERELVAAISGTGGSTYYADSVKGRFTISRDNAKNTVYLQMNSLKPEDTAVYYCAAGAFYAGYYWEFYYWGQGTQVTVSS	high polyreactivity
QVQLVESGGGLVQAGGSLRLSCAASGFILTDNAKGWNRQAPGKERELVAAINSGGSTYYADSVKGRFTISRDNAKNTVYLQMNSLKPEDTEVYYCAADYSTWLRAYDYWGQGTQVTVSS	low polyreactivity
QVQLVESGGGLVQAGGSLRLSCAASGFILTLYAMGWYRQAPGKERELVASISRRGGSTYYADSVKGRFTISRDNAKNTVYLQMNSLKPEDTAVYYCNAQGYRRGYDYWGQGTQVTVSS	high polyreactivity
QVQLVESGGGLVQAGGSLRLSCAASGFILYGNTMGWYRHAPGKDRELVAAISWSGGNTRYADSVKGRFTISRDNAKNTVYLQMNSLKQDDTAVYYCAAYSKYVLSIRRDYWGQGTQVTVSS	low polyreactivity
QVQLVESGGGLVQAGGSLRLSCAASGFILYSYAMGWYRQAPGKERELVADITGTGGRTYYADSVKGRFTISRDNAKNTVYLQMNSLKPEDTAVYYCNKGPFFVFRTTRYYEYDYWGQGTQVTVSS	low polyreactivity
QVQLVESGGGLVQAGGSLRLSCAASGFIMQYNAMGRYIQAPRKERELVAAITRSGVSTHYADSVKGRYTISRDNAKNTVYLQMISLKPEDTAVYYCARTGQSLYSRYYYWGQGTQVTVSS	low polyreactivity
QVQLVESGGGLVQAGGSLRLSCAASGFIRTAYAMGWYRQAPGKERELVAAIDWIGGSTYYADSVKGRFTISRDNAKNTVYLQMNSLKPEDTAVYYCAAVRYYWGQGTQVTVSS	low polyreactivity

Sequence	polyreactivity (PSR sort gate)
QVQLVESGGGLVQAGGSLRLSCAASGFISAYYAMGWYRQAPGKEMELVAAISWNGGRTFYADSVKGRFTISRDNAKNTVYLQMNSLKPEDTAVYYCAARYNGYANPYYYWGQGTQVTVSS	high polyreactivity
QVQLVESGGGLVQAGGSLRLSCAASGFISDYYAMGWDRQAPGKERELVADISSGGSTYYADSVKGRCTISRDNAKNTVYLQMNSLKPEDTAVYYCNAGDYFVRFVYYWDDERYDYWGQGTQVTVSS	low polyreactivity
QVQLVESGGGLVQAGGSLRLSCAASGFISGFYGMGWYIQAPGKEREFVAAIDFIDGDTYYADSVKGRFTISRDKAKNTVYLQMNSLKPEDTAVYYCAADGSFCQFDYWGQGTQVTVSS	low polyreactivity
QVQLVESGGGLVQAGGSLRLSCAASGFISGFYGMGWYRQAPGKEREFVAAIDFIDGDTYYADSVKGRFTISRDNAKNTVYLQMNSLKPEDTAVYYCAADGSFWQFDYWGQGTQVTVSS	low polyreactivity
QVQLVESGGGLVQAGGSLRLSCAASGFISNDNAMGWYRQAPGKERELVATIDISDASTYYADSVKGRFTISRDNAKNTVYLQMNSLKPEDTAVYYCAAESDEWFTWYWYGYWGQGTQVTVSS	low polyreactivity
QVQLVESGGGLVQAGGSLRLSCAASGFISPGYAMGWYRQAPGKERELVAAITRDGGTYYADSVKGRFTISRDNAKNTVYLQMNSLKPEDTAVYYCAAEGSFRKFDYWGQGTQVTVSS	low polyreactivity
QVQLVESGGGLVQAGGSLRLSCAASGFISPPYAMGWYRQAPGKERELVAAIRSSGGSTYYADSVKGRFTISRDNAKNTVYLQMNSLKPEDTAVYYCNADWIYISSYGWYSYDYWGQGTQVTLSS	high polyreactivity
QVQLVESGGGLVQAGGSLRLSCAASGFISPPYAMGWYRQAPGKERELVAAIRSSGGSTYYADSVKGRFTISRDNPKNTVYLQMNSLKPEDTAVYYCNADWIYISSYGWYSYDYWGQGTQVTVSS	high polyreactivity
QVQLVESGGGLVQAGGSLRLSCAASGFISPYAMRWYRQAPGKERELVAVITSSGGSTYYADSVKGRFTISRDNAKNTVYLQMNSLKPEDTAVYYCAARFYFRWYYYGSYANYWGQGTQVTVSS	high polyreactivity
QVQLVESGGGLVQAGGSLRLSCAASGFISRNAMGWYRQAPGKERELVAAITRGGSTNYADSVKGRFTISRDNAKNTVYLQMNRLKPEDTAVYYCNKQRQGNSRSYYQTYYGMYYWGQGTQVTVSS	high polyreactivity
QVQLVESGGGLVQAGGSLRLSCAASGFISSRYAMGWYRQAPGKERELVASINWSGGSTYYADSVKGRFTISRDNAKNTVYLQMNSLKPEDTAVYYCNRVLDPTNKYYYWGQGTQVTVSS	high polyreactivity
QVQLVESGGGLVQAGGSLRLSCAASGFISTPYAMGWYRQAPGKERELVAAIDISGGRTYYADSVKGRFTISRDNAKNTVYLQMNSLKPEDTAVYYCAAQLVSSYYAWYRTYYYWGQGTQVTVSS	high polyreactivity
QVQLVESGGGLVQAGGSLRLSCAASGFISYYYAMGWYRHAPGKEREFVAAITSSGGSTRYADSVKGCFTISRDNAKNTVYLQMNSLKPEDTAVYYCAAGNPYFWPYDYWGQGTQVTVSS	low polyreactivity
QVQLVESGGGLVQAGGSLRLSCAASGFITPWYAMGWYRQAAGKEREWVAAIDWSGGSTYYADSVKGRFTISRDNAKNSVYLQMNSVKPEDTAVYYCAARYYTASVRAGRVRMYYWGQGTQVTVSS	high polyreactivity
QVQLVESGGGLVQAGGSLRLSCAASGFIVGRYAMGWYRQAPGNERELVAAITRSGGSTYYADSVKGRFTISRDNAKNTVYLQMISLKPEQTAVYFGAAYPGRAQVAYDYWGQGTQVTVSS	high polyreactivity
QVQLVESGGGLVQAGGSLRLSCAASGFIVRSYAMGWYRQAPGKERELVAVISRRGVNTHYADSVKGRFTISRDNAKNTVYFQMNSLKPEDTAVYYCAKGLTALGDYWGQGTQVTVSS	high polyreactivity
QVQLVESGGGLVQAGGSLRLSCAASGFIWSYVMGWYRQAPGKESQLVAAISRSCGRTYYADSVKGRFTISRDNAKNTVYLQMNSLKPEDTAVYYCAKDGGWSRLHYNYWGQGNQVTVSS	high polyreactivity
QVQLVESGGGLVQAGGSLRLSCAASGFIYDKYVMGWSRQAPGKERQLVAAISSGGSTYYADSVKGRFTISRDNAKNTVYLQMNSLKPEDTAVYYCNAGGFWPWVYGYDSWGQGTQVTVSS	high polyreactivity
QVQLVESGGGLVQAGGSLRLSCAASGFIYERNAMGWYRQAPGKERELVAAISGGGSTNYADSVKGRFTISRDNAKNTVYLQMNSLNPEDTAVYYCAADSWWYPFDYWGQGTQVTVSS	high polyreactivity
QVQLVESGGGLVQAGGSLRLSCAASGFIYGPNAMGWYRQAPGKERELVAAISYSGGRTYYADSVKGRFTISRDNAKNTVYLQLISLKPEDSAVYYCAAERKIKYDYWGQGTQVTVSS	high polyreactivity
QVQLVESGGGLVQAGGSLRLSCAASGFIYNAMGWYRQAPGKERELVAAISYSGGSTYYADSVKGRFTISRDNAKNTVYLQMNILKPEDTAVYYCAAGYYPFNYWGQGTQVTVSS	high polyreactivity
